From patent publication US20190300618A1 (Merck Sharp & Dohme, published 2019)
Changes are numbered by the printed parent chain.

T1: I46A
T1 construct: also called hCD27 I46A
T1 receptor: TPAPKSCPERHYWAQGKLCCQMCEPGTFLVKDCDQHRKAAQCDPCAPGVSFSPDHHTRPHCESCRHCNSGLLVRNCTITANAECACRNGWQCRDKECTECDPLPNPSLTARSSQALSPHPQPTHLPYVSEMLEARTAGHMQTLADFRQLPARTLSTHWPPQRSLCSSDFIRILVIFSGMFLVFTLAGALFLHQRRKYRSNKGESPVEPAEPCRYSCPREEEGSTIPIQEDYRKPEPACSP

T2: Q91A
T2 construct: also called hCD27 Q91A
T2 receptor: T1 receptor with A46I, Q91A

T3: E9A
T3 construct: also called hCD27 E9A
T3 receptor: T1 receptor with E9A, A46I

T4: V49A
T4 construct: also called hCD27 V49A
T4 receptor: T1 receptor with A46I, V49A

T5: G16A
T5 construct: also called hCD27 G16A
T5 receptor: T1 receptor with G16A, A46I

T6: K31A
T6 construct: also called hCD27 K31A
T6 receptor: T1 receptor with K31A, A46I

T7: K17A
T7 construct: also called hCD27 K17A
T7 receptor: T1 receptor with K17A, A46I

T8: P44A
T8 construct: also called hCD27 P44A
T8 receptor: T1 receptor with P44A, A46I

T9: Q41A
T9 construct: also called hCD27 Q41A
T9 receptor: T1 receptor with Q41A, A46I

T10: H60A
T10 construct: also called hCD27 H60A
T10 receptor: T1 receptor with A46I, H60A

B1: Antibody hCD27.131A (mouse parental 131A) (antibody, V domains shown)
VH: QIQLVQSGPELKKPGETVKISCKASGYTFTNYGMNWVKQAPGKGLKWMGWINTNTGEPTYAEEFKGRFAFSLETSATTAYLQINNLKNEDTATYFCAREGDAMDYWGQGTSVTVSS
VL: QIVLTQSPAIMSASPGEKVTMTCSASSSVSYMHWYQQKSGTSPKRWIYDTSKLASGVPARFSGSGSGTSYSLTISSMEAEDAATYYCQQWNSYPFTFGSGTKLEIK
notes: mouse IgG1; also called mouse hCD27.131A

How the values were obtained:
Test in all cases: flow cytometry, CHO-K1; sub-column 2 of 2
I46A = biological target: T1, I46A
Q91A = biological target: T2, Q91A
E9A = biological target: T3, E9A
V49A = biological target: T4, V49A
G16A = biological target: T5, G16A
K31A = biological target: T6, K31A
K17A = biological target: T7, K17A
P44A = biological target: T8, P44A
Q41A = biological target: T9, Q41A
H60A = biological target: T10, H60A

Molecule | % of WT hCD27 binding (geo mean FITC) (I46A) [%] | % of WT hCD27 binding (geo mean FITC) (Q91A) [%] | % of WT hCD27 binding (geo mean FITC) (E9A) [%] | % of WT hCD27 binding (geo mean FITC) (V49A) [%] | % of WT hCD27 binding (geo mean FITC) (G16A) [%] | % of WT hCD27 binding (geo mean FITC) (K31A) [%] | % of WT hCD27 binding (geo mean FITC) (K17A) [%] | % of WT hCD27 binding (geo mean FITC) (P44A) [%] | % of WT hCD27 binding (geo mean FITC) (Q41A) [%] | % of WT hCD27 binding (geo mean FITC) (H60A) [%]
1A4 (mouse IgG1) (antibody) | 82.7 | 120 | 122 | 97 | 97.3 | 138 | 6.8 | 90.5 | 76.1 | 120
9F4 (mouse IgG2a) (antibody) | 82.7 | 111 | 109 | 92.1 | 102 | 133 | 106 | 91.7 | 71.3 | 126
B1 | 75 | 136 | 132 | 99.8 | 108 | 134 | 126 | 91 | 80.5 | 129
